± gives the uncertainty stated by the source.
Test: protein stability index of a GFP-peptide fusion (yeast GPS) (PSI 1-4); higher = more stable; sorted into four equal gates, so the index is relative within each strain
Procedure, shortened: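 The protein stability index of a peptide was calculated by multiplying its read frequency in each gate by that gate's number and adding the products. The peptides were tiled 17-residue stretches of yeast proteins, fused downstream of GFP on a Cherry-expressing plasmid and carried in yeast as a pooled library. Mid-log cultures in leucine-free medium were sorted into four equal gates by GFP/Cherry ratio, and each gate's plasmids were PCR-amplified and Illumina-sequenced.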

Sequence | protein stability index (doa10∆) | protein stability index (pdr5∆) | protein stability index (san1∆) | protein stability index (ubr1∆)
LDVTKEAQANLLTAKHG [RPO21] | 3.23 ± 0.17 | 3.46 ± 0.18 | 2.8 ± 0.19 | 3.18 ± 0.19
FEGDSNMLICAPTGSGK [BRR2] | 1.79 ± 0.096 | 1.43 ± 0.075 | 1.71 ± 0.14 | 2.18 ± 0.071
LPDGKNGNLEEEFAYVD [MED6] | 3.41 ± 0.066 | 3.44 ± 0.12 | 3.42 ± 0.052 | 3.32 ± 0.074
RDALRNIKNTNEEATPI [RRP6] | 2.76 ± 0.07 | 2.99 ± 0.081 | 2.86 ± 0.06 | 2.94 ± 0.064
YAKDILQKEFLPHITQL [RPB2] | 1.76 ± 0.047 | 1.8 ± 0.04 | 1.4 ± 0.065 | 1.38 ± 0.031
TFGINLIYVNPFMLQWG [FAS1] | 2.22 ± 0.067 | 2.35 ± 0.08 | 2.46 ± 0.074 | 2.4 ± 0.051
KNNILGSNVLKSGKTIV [RRP43] | 3.05 ± 0.039 | 3.11 ± 0.044 | 3.04 ± 0.043 | 3.076 ± 0.03
PQWKRHLEEYGYLIQVL [YCS4] | 2.27 ± 0.052 | 2.73 ± 0.057 | 2.02 ± 0.095 | 2.5 ± 0.047
YPFDKLESWWLVLGEVS [BRR2] | 3.18 ± 0.18 | 3.23 ± 0.15 | 3.46 ± 0.11 | 3.41 ± 0.24
MDYHFIFSYLQFTSSLF [RGR1] | 2.08 ± 0.046 | 1.39 ± 0.043 | 1.25 ± 0.076 | 1.21 ± 0.047
DLSLIVKARHGGCDYIF [CYT1] | 2.74 ± 0.097 | 2.94 ± 0.1 | 2.72 ± 0.1 | 2.46 ± 0.061
TAEERVGRRAANLRVLN [RPL15A] | 2.83 ± 0.12 | 3.28 ± 0.14 | 2.75 ± 0.14 | 2.92 ± 0.11
FTQPALTLMEKAAFEDL [FAS1] | 2.74 ± 0.1 | 2.33 ± 0.078 | 2.77 ± 0.091 | 2.9 ± 0.07
MAILLLYNDADVLTLEN [CDC53] | 1.58 ± 0.09 | 1.93 ± 0.063 | 2.5 ± 0.084 | 2.75 ± 0.06
MGVIKKKRSHHGKASRQ [SNF6] | 3.15 ± 0.14 | 3.15 ± 0.12 |  | 
DRMDVDEDESQNIAQSS [HRT1] | 2.37 ± 0.072 | 2.66 ± 0.062 | 2.21 ± 0.051 | 2.43 ± 0.05
RERQVNEKLADLGLEKE [RPC53] | 3.2 ± 0.14 | 3.4 ± 0.16 | 3.06 ± 0.18 | 3.2 ± 0.24
AKLNYKNLNPASSSPSS [ECM29] | 3.25 ± 0.071 | 3.06 ± 0.08 | 2.79 ± 0.11 | 3.04 ± 0.051
RRVYNRVLETTLVEFET [BRN1] | 2.21 ± 0.068 | 2.86 ± 0.098 | 2.69 ± 0.17 | 1.7 ± 0.071
FDINRSHKEGRRVPKEL [SEC65] |  | 2.52 ± 0.24 |  | 
WDLLPEPIRFLPNQFPL [SWI1] | 2.54 ± 0.059 | 2.58 ± 0.071 | 2.26 ± 0.054 | 2.31 ± 0.069
KILSPTMYMEVYTAIYN [CDC53] | 1.58 ± 0.058 | 1.62 ± 0.061 | 1.63 ± 0.08 | 1.74 ± 0.055
SELFDEWFEQNNSEQDQ [ISW2] | 2.49 ± 0.067 | 2.54 ± 0.071 | 1.44 ± 0.14 | 1.95 ± 0.051
ECADLWPRVASNSGVVV [RPL23A] | 2.9 ± 0.17 | 2.63 ± 0.1 | 3.06 ± 0.11 | 3.17 ± 0.062
EERERKDQYVPEVSALD [RPS17A] | 2.91 ± 0.082 | 3.13 ± 0.057 | 3.17 ± 0.042 | 2.82 ± 0.049

Sequence | protein stability index (doa10∆) | protein stability index (pdr5∆) | protein stability index (san1∆) | protein stability index (ubr1∆)
DQMVVGWYHSHPGFGCW [RPN11] | 2.57 ± 0.079 | 2.92 ± 0.063 | 2.37 ± 0.069 | 2.21 ± 0.087
YYKNFHNSVKRYQIMLP [SNM1] | 1.12 ± 0.042 | 1.36 ± 0.059 | 1.33 ± 0.11 | 1.47 ± 0.05
EFSPRLHNIWSNGLLSI [YML103C/NUP188] | 1.85 ± 0.061 | 1.91 ± 0.059 | 2.08 ± 0.11 | 1.89 ± 0.046
EFVDDYTVNVVDVFAMP [RPN11] | 3.08 ± 0.19 | 3.01 ± 0.17 | 2.91 ± 0.12 | 3.13 ± 0.13
GPSIYKTDPAGYYVGYK [SCL1] | 3.17 ± 0.092 | 3.4 ± 0.08 | 3.33 ± 0.059 | 3.38 ± 0.091
YKVDNMTRILPQQSRYI [RPN2] | 2.29 ± 0.077 | 3.03 ± 0.12 | 2.5 ± 0.1 | 2.56 ± 0.099
NIPKPLNSYHIKNGRIY [RGR1] | 2.28 ± 0.04 | 2.18 ± 0.03 | 1.97 ± 0.047 | 2.14 ± 0.027
DSNSEILNFLNQEDLFE [YML103C/NUP188] | 2.79 ± 0.12 | 2.86 ± 0.089 | 2.76 ± 0.049 | 3.14 ± 0.086
QLAPSSVDPQSSSTQNV [DIS3] | 2.99 ± 0.084 | 3.21 ± 0.079 | 2.8 ± 0.081 | 2.63 ± 0.098
SQLNIQLSQDEHSQVEQ [SRP72] | 3.17 ± 0.06 | 3.07 ± 0.047 | 3.16 ± 0.048 | 3.05 ± 0.066
ERLKVPILVTLVSDSEI [POP6] | 1.55 ± 0.035 | 1.86 ± 0.04 | 1.58 ± 0.066 | 1.66 ± 0.025
MSQSTASLVPEGNQGSL [MED8] | 3.16 ± 0.12 | 2.97 ± 0.1 | 2.62 ± 0.096 | 2.76 ± 0.13
KKTKFLSPSGHKTFLVA [RPL32] |  |  | 1.44 ± 0.27 | 
FGPKKENRKKDESDSEN [YLR335W/NUP2] | 3.04 ± 0.14 | 3.19 ± 0.086 | 2.62 ± 0.079 | 3.42 ± 0.091
YSAAKKIPDTYTANTSA [YAR002W/NUP60] | 2.43 ± 0.11 | 2.19 ± 0.082 | 2.2 ± 0.077 | 2.55 ± 0.038
QAPTELELQVAQAFVEL [RPS7A] | 2.53 ± 0.055 | 2.82 ± 0.063 | 2.59 ± 0.047 | 2.45 ± 0.046
EARFDVLITSYEMVIRE [ISW2] | 1.87 ± 0.094 | 1.49 ± 0.089 | 1.88 ± 0.11 | 2.02 ± 0.11
NKITNQGVTCLHLAVGK [NAS6] | 1.4 ± 0.2 | 1.83 ± 0.057 |  | 2.01 ± 0.075
ESQQQDESLKDEATVPN [SWI3] | 3.19 ± 0.079 | 3.36 ± 0.09 | 3.31 ± 0.15 | 3.21 ± 0.098
DTDKLPIKNRTSKSFSK [SIN4] | 2.83 ± 0.1 | 2.85 ± 0.067 | 2.61 ± 0.11 | 2.92 ± 0.068
EEKLKANKEKKKAEKAA [RPL24A] | 3.23 ± 0.07 | 3.33 ± 0.11 | 3.28 ± 0.043 | 3.48 ± 0.067
LCLMTWKEVMFDPSKDV [CDC53] | 2.52 ± 0.079 | 2.72 ± 0.068 | 2.83 ± 0.097 | 3.09 ± 0.073
NYGIVELDPECQLQNSD [RRP43] | 2.96 ± 0.075 | 3.01 ± 0.062 | 2.93 ± 0.054 | 3.02 ± 0.078
AVDNCAICRNHIMEPCI [HRT1] | 2.12 ± 0.071 | 2.79 ± 0.09 | 2.02 ± 0.086 | 2.2 ± 0.07
ETISKLNEYKRETLVKT [SMC2] | 2.02 ± 0.059 | 1.99 ± 0.046 | 2.19 ± 0.062 | 2.57 ± 0.034

From the supplement of paper PMC9732359
